Reference: paper PMC10933337, “RhoGDI phosphorylation by PKC promotes its interaction with death receptor p75^NTR to gate axon growth and neuron survival” (EMBO Reports, 2024)
Each block holds one molecule with its values, some of them ahead of it.

Columns and labels:
[1] = biological target: p75NTR (UniProt Q9Z0W1); test: p75NTR IP, Flag-RhoGDI immunoblot; conditions: reference: wild type RhoGDI; sites S34
[2] = biological target: p75NTR (UniProt Q9Z0W1); test: p75NTR IP, Flag immunoblot; conditions: reference: RhoGDI-59 wild type, PMA; sites S34
[3] = biological target: T1, human p75^NTR JXT domain (K273-D332) (human, UniProt P08138 273-332); test: NMR titration; unlabeled p75NTR JXT titrated to 15N-labeled RhoGDI NTD S34D, [1H-15N] HSQC, 28 °C, 10 mM PIPES pH 6.8; 0.3 mM RhoGDI NTD and 1.5 mM p75NTR JXT; conditions: both partners purified
T1 construct: juxtamembrane domain of human p75NTR, K273-D332, ~6.6 kDa; Cloned in a pET-32a-derived vector; unlabeled or 15N,13C-labeled for NMR; source: E. coli BL21 (DE3), purified (Ni-NTA, TEV cleavage, gel filtration, MonoS ion exchange)
T1 sequence (looked up): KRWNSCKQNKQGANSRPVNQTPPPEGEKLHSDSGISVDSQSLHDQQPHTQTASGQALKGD

- binding against the reference [1]: weaker
Molecule: RhoGDI (from UniProt Q99PT1) S34A

- binding against the reference [2]: lost
Molecule: RhoGDI RhoGDI-59, 59 N-terminal residues (fused to GST) (from UniProt Q99PT1) RhoGDI-59 S34A, PMA

- binding result [3]: binds
B1: human RhoGDI NTD^S34D (A2-A60) (domain or fragment, UniProt P52565 2-60, looked up)
chain: AEQEPTAEQLAQIAAENEEDEHSVNYKPPAQKDIQEIQELDKDDESLRKYKEALLGRVA
notes: N-terminal domain of RhoGDI, A2-A60, ~6.8 kDa, with the phosphorylation-mimetic mutation S34D; Cloned in a pET-32a-derived vector; 15N- or 15N,13C-labeled or unlabeled for NMR; source: E. coli BL21 (DE3), purified (Ni-NTA, TEV cleavage, gel filtration, MonoQ ion exchange)
